Positions count from the first letter of the chain named. Names may count otherwise.
B1: GpH7-B3 P271R / GpL16-k0 (antibody, human IgG1)
heavy: not shown
light: DIVMTQSPLSLPVTPGEPASISCQASESLVHSNRNTYLHWYLQKPGQSPQLLIYKVSNRFSGVPDRFSGSGSGTDFTLKISRVEAEDVGVYYCSQNTHVPPTFGQGTKVEIE
notes: B3 variant: anti-glypican-3 IgG1 (constant region B3 = G1d with K439E) with one substitution, EU numbering; also called B3 variant P271R; copies: 2 + 2
B2: GpH7-B3 Y296R / GpL16-k0 (antibody, human IgG1)
heavy: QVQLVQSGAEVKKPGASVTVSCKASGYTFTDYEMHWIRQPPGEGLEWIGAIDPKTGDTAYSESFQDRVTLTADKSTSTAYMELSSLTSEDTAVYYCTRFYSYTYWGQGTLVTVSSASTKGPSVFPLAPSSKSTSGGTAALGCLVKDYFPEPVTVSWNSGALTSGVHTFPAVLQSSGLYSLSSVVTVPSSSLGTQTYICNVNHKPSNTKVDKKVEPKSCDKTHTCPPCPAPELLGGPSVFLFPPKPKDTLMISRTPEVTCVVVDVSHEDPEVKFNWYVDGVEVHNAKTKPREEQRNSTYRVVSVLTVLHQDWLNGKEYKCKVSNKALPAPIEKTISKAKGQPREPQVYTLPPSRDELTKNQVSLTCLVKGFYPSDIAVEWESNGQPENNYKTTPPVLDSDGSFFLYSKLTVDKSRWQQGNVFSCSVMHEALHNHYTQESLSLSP
light: B1 light
notes: B3 variant: anti-glypican-3 IgG1 (constant region B3 = G1d with K439E) with one substitution, EU numbering; also called B3 variant Y296R; copies: 2 + 2
B3: GpH7-B3 Q295H / GpL16-k0 (antibody, human IgG1)
heavy: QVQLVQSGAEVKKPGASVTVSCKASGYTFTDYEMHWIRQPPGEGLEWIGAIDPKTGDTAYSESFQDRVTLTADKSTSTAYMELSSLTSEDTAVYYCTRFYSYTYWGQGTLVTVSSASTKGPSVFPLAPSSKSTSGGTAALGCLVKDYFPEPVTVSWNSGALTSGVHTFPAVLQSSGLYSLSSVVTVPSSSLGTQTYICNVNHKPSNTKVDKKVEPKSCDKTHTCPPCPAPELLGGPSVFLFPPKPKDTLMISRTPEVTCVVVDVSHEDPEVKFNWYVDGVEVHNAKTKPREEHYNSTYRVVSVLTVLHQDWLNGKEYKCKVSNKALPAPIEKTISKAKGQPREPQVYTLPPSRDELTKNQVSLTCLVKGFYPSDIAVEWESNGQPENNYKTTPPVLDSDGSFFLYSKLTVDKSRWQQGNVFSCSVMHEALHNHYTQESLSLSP
light: B1 light
notes: B3 variant: anti-glypican-3 IgG1 (constant region B3 = G1d with K439E) with one substitution, EU numbering; also called B3 variant Q295H; copies: 2 + 2
B4: GpH7-B3 Q295S / GpL16-k0 (antibody, human IgG1)
heavy: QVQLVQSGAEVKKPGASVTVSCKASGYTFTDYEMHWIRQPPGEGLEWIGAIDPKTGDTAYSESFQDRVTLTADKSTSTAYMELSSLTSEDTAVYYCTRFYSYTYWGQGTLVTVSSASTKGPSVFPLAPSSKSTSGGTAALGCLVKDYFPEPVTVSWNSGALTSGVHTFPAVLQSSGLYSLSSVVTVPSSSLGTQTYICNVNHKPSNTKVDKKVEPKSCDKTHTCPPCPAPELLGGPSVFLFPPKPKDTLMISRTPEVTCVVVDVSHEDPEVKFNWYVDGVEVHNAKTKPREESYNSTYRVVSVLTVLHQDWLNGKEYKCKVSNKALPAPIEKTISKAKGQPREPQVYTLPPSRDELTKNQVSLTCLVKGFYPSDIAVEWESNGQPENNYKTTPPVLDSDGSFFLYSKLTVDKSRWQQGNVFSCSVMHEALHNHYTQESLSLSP
light: B1 light
notes: B3 variant: anti-glypican-3 IgG1 (constant region B3 = G1d with K439E) with one substitution, EU numbering; also called B3 variant Q295S; copies: 2 + 2
B5: GpH7-B3 Q295F / GpL16-k0 (antibody, human IgG1)
heavy: not shown
light: B1 light
notes: B3 variant: anti-glypican-3 IgG1 (constant region B3 = G1d with K439E) with one substitution, EU numbering; also called B3 variant Q295F; copies: 2 + 2
B6: GpH7-B3 Y300P / GpL16-k0 (antibody, human IgG1)
heavy: not shown
light: B1 light
notes: B3 variant: anti-glypican-3 IgG1 (constant region B3 = G1d with K439E) with one substitution, EU numbering; also called B3 variant Y300P; copies: 2 + 2
B7: GpH7-B3 Y300R / GpL16-k0 (antibody, human IgG1)
heavy: not shown
light: B1 light
notes: B3 variant: anti-glypican-3 IgG1 (constant region B3 = G1d with K439E) with one substitution, EU numbering; also called B3 variant Y300R; copies: 2 + 2
B8: GpH7-B3 Q295R / GpL16-k0 (antibody, human IgG1)
heavy: not shown
light: B1 light
notes: B3 variant: anti-glypican-3 IgG1 (constant region B3 = G1d with K439E) with one substitution, EU numbering; also called B3 variant Q295R; copies: 2 + 2
B9: GpH7-B3 P271S / GpL16-k0 (antibody, human IgG1)
heavy: not shown
light: B1 light
notes: B3 variant: anti-glypican-3 IgG1 (constant region B3 = G1d with K439E) with one substitution, EU numbering; also called B3 variant P271S; copies: 2 + 2
B10: GpH7-B3 Q295Y / GpL16-k0 (antibody, human IgG1)
heavy: not shown
light: B1 light
notes: B3 variant: anti-glypican-3 IgG1 (constant region B3 = G1d with K439E) with one substitution, EU numbering; also called B3 variant Q295Y; copies: 2 + 2
B11: GpH7-B3 S298P / GpL16-k0 (antibody, human IgG1)
heavy: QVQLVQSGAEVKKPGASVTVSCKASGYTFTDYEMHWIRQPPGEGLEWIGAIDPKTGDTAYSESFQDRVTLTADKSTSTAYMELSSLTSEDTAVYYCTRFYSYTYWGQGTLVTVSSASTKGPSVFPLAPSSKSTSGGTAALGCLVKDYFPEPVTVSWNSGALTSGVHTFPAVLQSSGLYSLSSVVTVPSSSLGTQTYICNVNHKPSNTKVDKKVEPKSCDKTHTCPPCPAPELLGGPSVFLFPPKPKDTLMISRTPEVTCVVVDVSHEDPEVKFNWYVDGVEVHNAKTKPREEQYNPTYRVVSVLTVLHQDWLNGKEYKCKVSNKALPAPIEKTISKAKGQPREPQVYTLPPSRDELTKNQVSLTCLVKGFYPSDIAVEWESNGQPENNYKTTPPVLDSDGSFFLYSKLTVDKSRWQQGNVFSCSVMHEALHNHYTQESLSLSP
light: B1 light
notes: B3 variant: anti-glypican-3 IgG1 (constant region B3 = G1d with K439E) with one substitution, EU numbering; also called B3 variant S298P; copies: 2 + 2
B12: GpH7-B3 Q295D / GpL16-k0 (antibody, human IgG1)
heavy: not shown
light: B1 light
notes: B3 variant: anti-glypican-3 IgG1 (constant region B3 = G1d with K439E) with one substitution, EU numbering; also called B3 variant Q295D; copies: 2 + 2
B13: GpH7-B3 P271Y / GpL16-k0 (antibody, human IgG1)
heavy: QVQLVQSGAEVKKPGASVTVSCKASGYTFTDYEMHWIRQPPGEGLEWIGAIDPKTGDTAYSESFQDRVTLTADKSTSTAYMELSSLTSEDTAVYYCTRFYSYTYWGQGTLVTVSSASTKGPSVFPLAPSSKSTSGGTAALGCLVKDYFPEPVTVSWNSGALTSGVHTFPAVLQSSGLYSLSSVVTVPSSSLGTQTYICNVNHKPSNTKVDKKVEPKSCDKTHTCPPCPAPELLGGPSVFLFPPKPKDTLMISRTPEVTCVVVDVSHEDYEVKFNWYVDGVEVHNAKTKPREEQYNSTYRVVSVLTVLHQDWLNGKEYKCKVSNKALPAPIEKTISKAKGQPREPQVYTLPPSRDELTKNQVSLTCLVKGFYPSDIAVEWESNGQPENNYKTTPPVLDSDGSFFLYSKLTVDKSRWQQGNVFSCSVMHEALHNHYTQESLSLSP
light: B1 light
notes: B3 variant: anti-glypican-3 IgG1 (constant region B3 = G1d with K439E) with one substitution, EU numbering; also called B3 variant P271Y; copies: 2 + 2
B14: GpH7-B3 P271T / GpL16-k0 (antibody, human IgG1)
heavy: not shown
light: B1 light
notes: B3 variant: anti-glypican-3 IgG1 (constant region B3 = G1d with K439E) with one substitution, EU numbering; also called B3 variant P271T; copies: 2 + 2
B15: GpH7-B3 Y296K / GpL16-k0 (antibody, human IgG1)
heavy: not shown
light: B1 light
notes: B3 variant: anti-glypican-3 IgG1 (constant region B3 = G1d with K439E) with one substitution, EU numbering; also called B3 variant Y296K; copies: 2 + 2
B16: GpH7-B3 Q295N / GpL16-k0 (antibody, human IgG1)
heavy: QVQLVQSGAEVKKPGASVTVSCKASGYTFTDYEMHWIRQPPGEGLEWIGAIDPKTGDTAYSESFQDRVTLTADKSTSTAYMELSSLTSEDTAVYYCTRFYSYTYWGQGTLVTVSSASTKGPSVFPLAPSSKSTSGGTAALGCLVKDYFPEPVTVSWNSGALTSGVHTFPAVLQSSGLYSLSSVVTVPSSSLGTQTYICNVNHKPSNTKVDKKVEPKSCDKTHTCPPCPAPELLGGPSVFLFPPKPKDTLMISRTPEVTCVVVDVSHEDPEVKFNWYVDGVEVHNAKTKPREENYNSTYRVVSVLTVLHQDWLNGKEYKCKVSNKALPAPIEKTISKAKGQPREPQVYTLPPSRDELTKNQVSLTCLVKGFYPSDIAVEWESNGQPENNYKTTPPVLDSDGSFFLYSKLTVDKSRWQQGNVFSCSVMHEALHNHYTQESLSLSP
light: B1 light
notes: B3 variant: anti-glypican-3 IgG1 (constant region B3 = G1d with K439E) with one substitution, EU numbering; also called B3 variant Q295N; copies: 2 + 2
B17: GpH7-B3 S298Y / GpL16-k0 (antibody, human IgG1)
heavy: not shown
light: B1 light
notes: B3 variant: anti-glypican-3 IgG1 (constant region B3 = G1d with K439E) with one substitution, EU numbering; also called B3 variant S298Y; copies: 2 + 2
B18: GpH7-B3 S298G / GpL16-k0 (antibody, human IgG1)
heavy: not shown
light: B1 light
notes: B3 variant: anti-glypican-3 IgG1 (constant region B3 = G1d with K439E) with one substitution, EU numbering; also called B3 variant S298G; copies: 2 + 2
B19: GpH7-B3 Y296G / GpL16-k0 (antibody, human IgG1)
heavy: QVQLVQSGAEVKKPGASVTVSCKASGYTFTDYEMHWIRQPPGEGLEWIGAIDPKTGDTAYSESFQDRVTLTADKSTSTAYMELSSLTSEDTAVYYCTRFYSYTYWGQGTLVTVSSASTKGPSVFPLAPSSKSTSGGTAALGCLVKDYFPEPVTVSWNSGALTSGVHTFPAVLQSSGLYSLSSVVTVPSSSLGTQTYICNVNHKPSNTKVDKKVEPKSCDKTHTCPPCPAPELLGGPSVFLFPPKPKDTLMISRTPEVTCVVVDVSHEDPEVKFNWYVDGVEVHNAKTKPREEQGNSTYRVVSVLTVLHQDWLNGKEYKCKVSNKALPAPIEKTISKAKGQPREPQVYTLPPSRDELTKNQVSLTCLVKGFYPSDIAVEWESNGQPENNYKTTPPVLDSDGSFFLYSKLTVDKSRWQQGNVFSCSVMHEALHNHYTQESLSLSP
light: B1 light
notes: B3 variant: anti-glypican-3 IgG1 (constant region B3 = G1d with K439E) with one substitution, EU numbering; also called B3 variant Y296G; copies: 2 + 2
B20: GpH7-B3 Q295G / GpL16-k0 (antibody, human IgG1)
heavy: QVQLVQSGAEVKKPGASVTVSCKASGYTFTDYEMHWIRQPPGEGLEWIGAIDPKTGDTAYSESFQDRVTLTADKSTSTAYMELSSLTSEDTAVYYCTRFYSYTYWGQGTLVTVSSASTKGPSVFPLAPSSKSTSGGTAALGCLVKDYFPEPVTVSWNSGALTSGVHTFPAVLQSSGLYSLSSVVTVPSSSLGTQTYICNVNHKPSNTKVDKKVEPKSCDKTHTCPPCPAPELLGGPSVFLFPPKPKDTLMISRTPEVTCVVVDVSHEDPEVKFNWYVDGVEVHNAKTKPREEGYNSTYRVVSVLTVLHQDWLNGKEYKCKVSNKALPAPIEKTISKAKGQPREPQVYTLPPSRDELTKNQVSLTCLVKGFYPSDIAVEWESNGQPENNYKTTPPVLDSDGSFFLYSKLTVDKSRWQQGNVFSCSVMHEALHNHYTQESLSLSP
light: B1 light
notes: B3 variant: anti-glypican-3 IgG1 (constant region B3 = G1d with K439E) with one substitution, EU numbering; also called B3 variant Q295G; copies: 2 + 2
B21: GpH7-B3 S298R / GpL16-k0 (antibody, human IgG1)
heavy: not shown
light: B1 light
notes: B3 variant: anti-glypican-3 IgG1 (constant region B3 = G1d with K439E) with one substitution, EU numbering; also called B3 variant S298R; copies: 2 + 2
B22: GpH7-B3 P271W / GpL16-k0 (antibody, human IgG1)
heavy: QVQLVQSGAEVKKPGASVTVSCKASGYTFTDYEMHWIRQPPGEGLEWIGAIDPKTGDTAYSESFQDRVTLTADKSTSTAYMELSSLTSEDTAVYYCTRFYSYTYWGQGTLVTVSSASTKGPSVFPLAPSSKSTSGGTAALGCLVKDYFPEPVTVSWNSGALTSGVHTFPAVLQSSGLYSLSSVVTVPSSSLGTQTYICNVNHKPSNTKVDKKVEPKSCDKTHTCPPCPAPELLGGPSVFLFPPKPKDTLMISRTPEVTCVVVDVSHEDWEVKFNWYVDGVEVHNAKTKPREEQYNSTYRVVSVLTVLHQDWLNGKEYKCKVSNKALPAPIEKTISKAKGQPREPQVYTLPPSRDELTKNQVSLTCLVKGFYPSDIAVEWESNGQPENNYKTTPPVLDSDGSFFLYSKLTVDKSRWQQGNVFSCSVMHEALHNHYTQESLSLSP
light: B1 light
notes: B3 variant: anti-glypican-3 IgG1 (constant region B3 = G1d with K439E) with one substitution, EU numbering; also called B3 variant P271W; copies: 2 + 2
B23: GpH7-B3 Q295W / GpL16-k0 (antibody, human IgG1)
heavy: not shown
light: B1 light
notes: B3 variant: anti-glypican-3 IgG1 (constant region B3 = G1d with K439E) with one substitution, EU numbering; also called B3 variant Q295W; copies: 2 + 2
B24: GpH7-B3 S298W / GpL16-k0 (antibody, human IgG1)
heavy: not shown
light: B1 light
notes: B3 variant: anti-glypican-3 IgG1 (constant region B3 = G1d with K439E) with one substitution, EU numbering; also called B3 variant S298W; copies: 2 + 2
B25: GpH7-B3 S298K / GpL16-k0 (antibody, human IgG1)
heavy: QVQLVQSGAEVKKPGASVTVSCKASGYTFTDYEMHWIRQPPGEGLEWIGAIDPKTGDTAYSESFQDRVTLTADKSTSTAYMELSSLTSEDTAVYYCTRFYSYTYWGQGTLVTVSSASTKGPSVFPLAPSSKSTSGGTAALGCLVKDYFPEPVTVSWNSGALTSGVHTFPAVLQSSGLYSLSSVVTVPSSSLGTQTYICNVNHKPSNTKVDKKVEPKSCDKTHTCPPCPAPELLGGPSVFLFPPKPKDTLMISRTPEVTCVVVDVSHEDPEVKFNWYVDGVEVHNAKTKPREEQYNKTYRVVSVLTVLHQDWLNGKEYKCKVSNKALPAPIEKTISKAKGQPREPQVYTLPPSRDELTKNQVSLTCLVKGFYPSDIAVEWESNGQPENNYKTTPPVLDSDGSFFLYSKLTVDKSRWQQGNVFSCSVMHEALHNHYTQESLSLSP
light: B1 light
notes: B3 variant: anti-glypican-3 IgG1 (constant region B3 = G1d with K439E) with one substitution, EU numbering; also called B3 variant S298K; copies: 2 + 2
B26: IL6R-BP130/IL6R-L (antibody, human IgG1)
heavy: QVQLQESGPGLVKPSETLSLTCAVSGHSISHDHAWSWVRQPPGEGLEWIGFISYSGITNYNPSLQGRVTISRDNSKNTLYLQMNSLRAEDTAVYYCARSLARTTAMDYWGEGTLVTVSSASTKGPSVFPLAPSSKSTSGGTAALGCLVKDYFPEPVTVSWNSGALTSGVHTFPAVLQSSGLYSLSSVVTVPSSSLGTQTYICNVNHKPSNTKVDKKVEPKSCDKTHTCPPCPAPDLLGGDSVFLFPPKPKDTLMISRTPEVTCVVVDVSHEDPEVKFNWYVDGVEVHNAKTKPREEQYNSTYRVVSVLTVLHQDWLNGKEYKCKMSNKALPKPIEKTISKAKGQPREPQVYTLPPSRDELTKNQVSLTCLVKGFYPSDIAVEWESNGQPENNYKTTPPVLDSDGSFFLYSKLTVDKSRWQQGNVFSCSVMHEALHNHYTQESLSLSP
light: DIQMTQSPSSLSASVGDRVTITCRASQDISSYLNWYQQKPGKAPKLLIYYTSRLHSGVPSRFSGSGSGTDFTFTISSLQPEDIATYYCQQGNTLPYTFGQGTKVEIK
B27: IL6R-BP152/IL6R-L (antibody, human IgG1)
heavy: B26 heavy with L236Y, G239D, Y298D, M325V, K328A, K332R
light: B26 light
B28: IL6R-BP178/IL6R-L (antibody, human IgG1)
heavy: B26 heavy with G239D, P273G, M325V
light: B26 light
B29: IL6R-BP176/IL6R-L (antibody, human IgG1)
heavy: B26 heavy with M325V, K328D
light: B26 light
B30: IL6R-BP146/IL6R-L (antibody, human IgG1)
heavy: B26 heavy with D235E, L236Y, G239D, M325V, K328A, K332A
light: B26 light

Each binder was assayed against T1, human FcγRIIIa(F) (human, UniProt P08637 17-208, limits assumed) (assay: SPR (Biacore), antibody captured, FcγR as analyte).
T1 construct: also called FcgRIIIaF; FcγRIIIa allotype F158
T1 sequence (P08637 other isoform, or with tags, fused parts or gaps limits assumed): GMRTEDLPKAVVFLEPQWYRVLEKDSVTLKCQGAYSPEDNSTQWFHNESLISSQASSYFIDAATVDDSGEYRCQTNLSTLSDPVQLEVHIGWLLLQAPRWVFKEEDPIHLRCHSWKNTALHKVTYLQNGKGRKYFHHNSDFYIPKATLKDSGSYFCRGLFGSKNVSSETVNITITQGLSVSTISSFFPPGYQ
Procedure: Interaction between each modified antibody and Fcγ receptor prepared in the manner described above was analyzed using the Biacore T100 (GE Healthcare), Biacore T200 (GE Healthcare), Biacore A100 or Biacore 4000. HBS-EP+ (GE Healthcare) was used for the running buffer, and measurements were carried out at 25° C. The chips used were chips in which antigen peptides, Protein A (Thermo Scientific), Protein A/G (Thermo Scientific) or Protein L (ACTIGEN or BioVision) were immobilized on the Series S Sensor Chip CM5 (GE Healthcare) or Series S Sensor Chip CM4 (GE Healthcare) by amine coupling, or chips in which preliminarily biotinylated antigen peptides were allowed to interact and then immobilized on the Series S Sensor Chip SA (certified) (GE Healthcare). The target antibodies were captured on these sensor chips, Fcγ receptor diluted with the running buffer was allowed to interact, followed by measurement of the amount of bound antibody. The amounts bound were compared between antibodies. However, since the amount of Fcγ receptor bound depends on the amount of captured antibody, the values used for comparison were first corrected by dividing the amount of Fcγ receptor bound by the captured amount of each antibody. Through reaction with 10 mM glycine-HCl at pH 1.5, the sensor chips were regenerated by washing off antibody captured on the sensor chips and used repeatedly.
Binding strength was evaluated according to the following method based on the results of analyzing the interaction with each FcγR. […] That value was then further multiplied by 100, and the resulting value was used as an indicator of relative binding activity to each FcγR.

Row | Binder | relative binding activity (amount bound / amount bound by GpH7-B3/GpL16-k0 x100)
1 | B1 | 76 % of GpH7-B3/GpL16-k0
2 | B2 | 38 % of GpH7-B3/GpL16-k0
3 | B3 | 52 % of GpH7-B3/GpL16-k0
4 | B4 | 87 % of GpH7-B3/GpL16-k0
5 | B5 | 46 % of GpH7-B3/GpL16-k0
6 | B6 | -1 % of GpH7-B3/GpL16-k0
7 | B7 | 12 % of GpH7-B3/GpL16-k0
8 | B8 | 52 % of GpH7-B3/GpL16-k0
9 | B9 | 62 % of GpH7-B3/GpL16-k0
10 | B10 | 49 % of GpH7-B3/GpL16-k0
11 | B11 | 0 % of GpH7-B3/GpL16-k0
12 | B12 | 64 % of GpH7-B3/GpL16-k0
13 | B13 | 33 % of GpH7-B3/GpL16-k0
14 | B14 | 31 % of GpH7-B3/GpL16-k0
15 | B15 | 21 % of GpH7-B3/GpL16-k0
16 | B16 | 68 % of GpH7-B3/GpL16-k0
17 | B17 | 71 % of GpH7-B3/GpL16-k0
18 | B18 | 59 % of GpH7-B3/GpL16-k0
19 | B19 | 21 % of GpH7-B3/GpL16-k0
20 | B20 | 55 % of GpH7-B3/GpL16-k0
21 | B21 | 20 % of GpH7-B3/GpL16-k0
22 | B22 | 57 % of GpH7-B3/GpL16-k0
23 | B23 | 10 % of GpH7-B3/GpL16-k0
24 | B24 | 11 % of GpH7-B3/GpL16-k0
25 | B25 | 25 % of GpH7-B3/GpL16-k0

The binders below were run against T2, human FcγRIa (human, UniProt P12314 16-292, limits assumed) (assay: SPR (Biacore), FcγR over captured antibody; binding amount / that of IL6R-BF648/IL6R-L x100).
T2 construct: also called FcgRIa; CD64
T2 sequence (P12314 16-292 limits assumed): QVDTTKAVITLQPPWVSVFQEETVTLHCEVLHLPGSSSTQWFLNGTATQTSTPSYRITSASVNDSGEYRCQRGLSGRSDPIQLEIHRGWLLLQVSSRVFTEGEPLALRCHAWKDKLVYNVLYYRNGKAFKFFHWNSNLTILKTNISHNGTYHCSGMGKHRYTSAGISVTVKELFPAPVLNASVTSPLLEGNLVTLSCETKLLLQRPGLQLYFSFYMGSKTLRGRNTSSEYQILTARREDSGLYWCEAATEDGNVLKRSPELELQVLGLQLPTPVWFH
Procedure: (§1) According to the following method, relative binding activities were calculated for the results of analyzing interactions with the respective FcγRs.

Row | Binder | relative binding activity
26 | B26 | 104 % of IL6R-BF648/IL6R-L
27 | B27 | 34 % of IL6R-BF648/IL6R-L
28 | B28 | 51 % of IL6R-BF648/IL6R-L
29 | B29 | 102 % of IL6R-BF648/IL6R-L

Molecular target: T3, human FcγRIIa type R (human, UniProt P12318 36-217)
T3 construct: also called FcgRIIaR; FcγRIIa(R)
T3 chain: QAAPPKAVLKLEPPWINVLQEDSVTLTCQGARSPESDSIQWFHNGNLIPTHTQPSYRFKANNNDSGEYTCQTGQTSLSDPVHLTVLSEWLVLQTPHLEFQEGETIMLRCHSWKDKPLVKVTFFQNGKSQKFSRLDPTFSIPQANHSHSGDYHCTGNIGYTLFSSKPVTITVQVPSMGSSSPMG
Assay: as above
Procedure: as §1

Row | Binder | relative binding activity
30 | B26 | 272 % of IL6R-BF648/IL6R-L
31 | B27 | 638 % of IL6R-BF648/IL6R-L
32 | B28 | 653 % of IL6R-BF648/IL6R-L
33 | B30 | 445 % of IL6R-BF648/IL6R-L
34 | B29 | 201 % of IL6R-BF648/IL6R-L

The binders below were run against T4, human FcγRIIa type H (human, UniProt P12318 36-217) in the same assay as above.
T4 construct: also called FcgRIIaH; FcγRIIa(H)
T4 sequence: T3 chain with R133H
Procedure: as §1

Row | Binder | relative binding activity
35 | B26 | 224 % of IL6R-BF648/IL6R-L
36 | B27 | 548 % of IL6R-BF648/IL6R-L
37 | B28 | 259 % of IL6R-BF648/IL6R-L
38 | B30 | 203 % of IL6R-BF648/IL6R-L
39 | B29 | 128 % of IL6R-BF648/IL6R-L

What follows are binders tested against T5, human FcγRIIb (human, UniProt P31994 43-217) in the same assay as above.
T5 construct: also called FcgRIIb; FcγIIB
T5 sequence: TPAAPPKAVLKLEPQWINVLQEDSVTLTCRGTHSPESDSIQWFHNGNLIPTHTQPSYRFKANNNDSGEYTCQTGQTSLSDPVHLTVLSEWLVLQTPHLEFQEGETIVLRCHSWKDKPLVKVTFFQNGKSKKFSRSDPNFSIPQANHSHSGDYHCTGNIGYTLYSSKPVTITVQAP
Procedure: as §1

Row | Binder | relative binding activity
40 | B27 | 178 % of IL6R-BF648/IL6R-L
41 | B28 | 179 % of IL6R-BF648/IL6R-L
42 | B30 | 156 % of IL6R-BF648/IL6R-L
43 | B29 | 147 % of IL6R-BF648/IL6R-L
